Results published in PMC9687926, “High-Resolution Genetic Mapping Combined with Transcriptome Profiling Reveals That Both Target-Site Resistance and Increased Detoxification Confer Resistance to the Pyrethroid Bifenthrin in the Spider Mite Tetranychus urticae” (Biology, 2022).

Tests used:
purified protein [1] = substrate: CC(=O)Oc1ccc([N+](=O)[O-])cc1; assay: purified protein; format: biochemical, Tetranychus urticae; settings: 0.1 M phosphate buffer pH 7.5, 30 °C, 1 µg enzyme, 1% acetone
purified protein [2] = substrate: CC(=O)Oc1cccc2ccccc12; assay: purified protein; format: biochemical, Tetranychus urticae; settings: 0.1 M phosphate buffer pH 7.5, 1 µg enzyme, fast blue RR

B1: CCE58 (Tetranychus urticae) (protein)
chain: TISENVEPELTLSSGSIRGTSVDFRGVKVYQFLGIPFAEPPLNELRFQKPVSKKPWNGVLSVNKWGSACMQPVFPGYNTELHLNEDCLVLNVFTTEAAFQDKQNGKKHKLRPVMVWIHGGSFNYGSANTPDQHDGTPITGLKDVIIVSINYRLGSLGFLQLPEAGVPGNMGLWDQQLALKWVKDNIEHFGGDPNKVTIFGESAGSMSVSAHLVSPQSKGLFTNAIMQSGSIYDLDRWTQPGLVANFTSKIGCISDNYKSCLSNYRFGQFPEADRLTFWPTVDGEFLPHRAEELVSNHTVDPNINVLLGTNANEGAFMLLMKDMVTFHPLNPINLTIPHAKYIFGKLFGKTLIDFYSERYLASLSADDSDSIRLAVTQALGDSIFTCPTYATGRDLIASGVPNVYGYVQTQKPTHTLISVSGQAKWMSNIASHADTFPMVFGHPFNKLDKFKNEDVVLSFLMMDIWTKFAKDGKPPQISHQEWLPWNLSDPIPYPTMVLNSNKIGLIETKSAEFCAKNWPFPLENYYSMDSESGVYAEIE
notes: full-length MR-VL allele, signal peptide removed, codon-optimised, pPICZalphaA secretion in Pichia pastoris X-33, 6xHis tag, Ni-NTA purified, about 75 kDa on SDS-PAGE
B1 was tested. Which Km (purified protein [1]) did it give?
The Km was 0.379 (±0.028) mM.

What about the Km (purified protein [2]) of the same protein?
The Km was 0.446 (±0.051) mM.
